Our source for the Kd values is US20220194997A1 (published 2022).

The Kd is a measure of binding affinity in units of concentration. A higher Kd goes with lower affinity.

Common to all, as to assay: MST
For assay [1], the target named is αSyn-SIM1(5A).
In assay [2] the target is αSyn-SIM2(5A).
For assay [3], the target named is T1, αsyn(59-66).
T1 peptide: TKEQVTNV

Assay [4] addresses T2, αsyn(48-60).
T2 peptide: VVHGVATVAEKTK

Assay [5] deals with T3, αsyn(35-45).
T3 peptide: EGVLYVGSKTK

Assay [6] concerns the target T4, αsyn(74-84).
T4 peptide: VTAVAQKTVEG

Assay [7] concerns the target T5, αsyn(87-95).
T5 peptide: SIAAATGFV

The target in assay [8] is α-Synuclein-V40R/V49R.
Assay [9] addresses human wild-type α-synuclein (full-length) (UniProt P37840 1-140).

Where no end group is shown, it is not given here.

With DKKEGEYIKLKVIGQDSSEIHFKVKMTTHLKKLKESYCQRQ (also: Alexa Fluor 647 NHS ester on amines when used as MST target) [SUMO1(15-55)], the Kd stood at 19.6 µM in assay [1]; 0.86 µM in assay [2]; 108 µM in assay [3]; 0.87 µM in [4]; 1.19 µM in assay [5]; 195 µM in assay [6]. The results for the Kd in assay [7] and in [8] were 364 µM and 88.3 µM, respectively.
SSEIHFKVKMTTHLKKLKESYCQRQ [SUMO1(31-55)] registered a Kd in [9] of 2.32 µM.
